Data as given in US20100047253A1 (Amgen, published 2010).

B1: mAb 157 (antibody, V domains shown)
VH: EVQLVESGGGLVKPGGSLRLSCAASGFTFSSYSMNWVRQAPGKGLEWVSYISTSYNYIYYADSVKGRFTISRDNAKNSLYLQMNSLRAEDTAVYYCARDQVGATLDAFDIWGQGTMVTVSS
VL: DIQMTQSPSSLSASVGDRVTITCRASQGIGDDLGWYQQKPGKAPKRLIYAASSLQSGVPSRFSGSGSGTEFTLTISSLQPEDFATYYCLQHNSYPFTFGPGTRVDIK
B2: mAb 176 (antibody, V domains shown)
VH: EVQLVESGGGLVKPGGSLRLSCAASGFTFSSYSMNWVRQAPGKGLEWVSYISTSNSYIYYADSVKGRFTISRDNAKNSLYLQMNSLRAEDTAVYYCARDQVGATLDAFDIWGQGTMVTVSS
VL: DIQMTQSPSSLSASVGDRVTFTCRASQDITDDLGWYQQKPGKAPKRLIYAASSLQSGVPPRFSGSGSGTEFTLTISSLQPEDFATYYCLQHNSYPFTFGPGTKVDIR
B3: mAb 183 (antibody, V domains shown)
VH: EVQLVESGGGLVKPGGSLRLSCAASGFTFSSYSMNWVRQAPGKGLEWVSYISSSYNYIYYGDSVKGRFTISRDNAKNSLYLQMNSLRAEDTAVYYCARDQVGATLDAFDIWGQGTMVTVSS
VL: DIQMTQSPSSLSASVGDRVTITCRASQGIGDDLGWYQQKPGKAPKRLIYAASSLQSGVPSRFSGSGSGTEFTLTISSLQPEDFATYYCLQHNSYPFTFGPGTKVDIK
B4: mAb 264 (antibody, V domains shown)
VH: EVQLVESGGGLVKPGGSLRLSCAASGFTFSSYSMNWVRQAPGKGLEWVSYISTSNSYIYYADSVKGRFTISRDNAKNSLYLQMNSLRAEDTAVYYCARDQVGATLDAFDIWGQGTMVTVSS
VL: DIQMTQSPSSLSASVGDRVTFTCRASQDITDDLGWYQQKPGKAPKRLIYAASSLQSGVPSRFSGSGSGTEFTLTISSLQPEDFATYYCLQHNSYPFTFGPGTKVDIR
B5: mAb 243 (antibody, V domains shown)
VH: EVQLVESGGGLVKPGGSLRLSCAASGFTFSSYSMNWVRQAPGKGLEWVSYISTSNSYIYYADSVKGRFTISRDNAKNSLYLQMNSLRAEDTAVYYCARDQVGATLDAFDIWGQGTMVTVSS
VL: DIQMTQSPSSLSASVGDRVTFTCRASQDITDDLGWYQQKPGKAPKRLIYAASSLQSGVPSRFSGSGSGTEFTLTISSLQPEDFATYYCLQHNSYPFTFGPGTKVDIR
B6: mAb 11.18 (antibody, V domains shown)
VH: QVQLVESGGGVVQPGRSLRLSCVASGFTFSSYDMHWVRQAPGKGLEWVAVIWYDGSNKYYADSVQGRFTISRDNSKNTLYLQMNSLRAEDTAVYYCTSEDSSGWYDGWFDPWGQGTLVTVSS
VL: DIQMTQSPSSLSASVGDRVTITCRASQGISNYLAWYQQKPGKVPKVLIYAASTLQSGVPSRFSGSGSGTDFTLTISSLQPEDVATYYCQKYNSAPFTFGPGTKVDIK

What follows are binders tested against human IL-13 (source not stated for the assay) (human, UniProt P35225 35-146, limits assumed) (assay: cell-based or functional assay).
human IL-13 (source not stated for the assay), sequence (P35225 35-146 limits assumed): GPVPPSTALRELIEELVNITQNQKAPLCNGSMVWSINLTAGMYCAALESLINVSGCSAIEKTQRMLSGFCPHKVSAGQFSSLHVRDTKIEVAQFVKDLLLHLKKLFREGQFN

B1 was tested. Which “IC50, IL-13 induced eotaxin release, Average” value (“IC50 … Average” for short) did it give?
The value was 0.258 nM.

What about the “IC50, IL-13 induced eotaxin release, n = 1” value (“IC50 … n = 1” below) of the same binder?
The value was 0.26 nM.

What about the “IC50, IL-13 induced eotaxin release, n = 2” value (“IC50 … n = 2” for short) of the same binder?
Its value is 0.207 nM.

What about the “IC50, IL-13 induced eotaxin release, n = 3” value of the same binder?
Its value is 0.306 nM.

What does the source list for B2?
IC50, IL-13 induced eotaxin release, Average: 0.233 nM; IC50, IL-13 induced eotaxin release, n = 1: 0.233 nM

For B3, which “IC50 … Average” value is on record?
The value was 1.44 nM.

What about the “IC50 … n = 1” value of the same binder?
Its value is 1.04 nM.

And the “IC50 … n = 2” value?
The value was 1.84 nM.

Which results are given for B4?
IC50, IL-13 induced eotaxin release, Average: 0.297 nM; IC50, IL-13 induced eotaxin release, n = 1: 0.293 nM; IC50, IL-13 induced eotaxin release, n = 2: 0.313 nM; IC50, IL-13 induced eotaxin release, n = 3: 0.284 nM

Which “IC50 … Average” value does the source give for B5 here?
Its value is 0.253 nM.

What about the “IC50 … n = 1” value of the same binder?
Its value is 0.253 nM.

Which “IC50 … Average” value does the source give for B6 here?
The value was 0.245 nM.

And the “IC50 … n = 1” value?
Its value is 0.213 nM.

And the “IC50 … n = 2” value?
The value was 0.304 nM.

And the “IC50, IL-13 induced eotaxin release, n = 3” value?
The value was 0.217 nM.
